The values that follow are results of earlier work, collected in paper PMC12135873.

In the data set the target is Cys106 (UniProt position 106, LIAAICAGPTA).

The pKa is the pH at which an ionisable group is half protonated. For “DJ-1 (PARK7, Parkinson disease protein 7) (Homo sapiens)”, the pKa is recorded as 5.4.
